This series deals with CsrA (Escherichia coli (K-12 MG1655?)) (UniProt P69913). The series is described as follows: EMSA. Conditions: binding buffer, pH and temperature not given. For orientation: A gel shift assay detects complexes by their altered migration in electrophoresis.
CsrA (Escherichia coli (K-12 MG1655?)), sequence (P69913 whole entry): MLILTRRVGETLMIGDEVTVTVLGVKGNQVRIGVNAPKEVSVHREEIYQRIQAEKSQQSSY

Regarding “GGGAGAUUUGUGUUUAUCCCGAUUUUCGCGAUCGCAGCCGGAGUGGCGCAAUCCCUGCAAUACUUAAAUCGGUAUCAUGUGAUACGCGAGCCUCCGGAGCAUAUUUUGAACAGGUUACCUUCGAGCGCAUCGGCUUUAGCGUGCAGCGCCCACGCCCUGAAUCUCAUUGAGAAGCGAACGCUGGAUCAUGAGGAGAUGAAAGCAC [patA leader]”, the binding result is given as “binds”. Still for that read-out and setting: next, “GGGAGGUUUGCUUUUAGGUUAGCGACCGAAAAUAUAAAUGAUAAUCAUUAUUAAAGCCUUUAUCAUUUUGUGGAGGAUGAUAUGGAUACGUCACUGGCUGAGGAAGUACAGCAGACCAUGGCAACACUUGCGCCCAAUCGCUUUUUCUUUAUGUCGCCGUACCGCAGUUUUACGACGUCAG [entC leader]”: “binds”; “GGGAGGUAAUUUUGGUUUUCCCGGCCAAAAAUGGACAAUAACCACCAGGAAAAGGAGACGGAAUGCAUCACGCCACCCCGCUUAUCACCACCAUUGUUGGCGGCCUUGUGCUCGCCUUUAUCCUCGGCAUGCUGGCCAAUAAACUACGUAUUUCUCCUCUGG [ybaL leader]”: “binds”. On to “GGGAUAAUGCGCUUUCUUUAGCCGUUAAUAUCCACCGGCAUGGCUGCGCGCCGUGCCGGUUCCUUCUUGCUUGGCGUCACUCUUUGAAGACGCAUUCUGCAGUUUACGAUGACUACUAUUGUUGACAGCAAUCUGCCGGUUGCCCGCCCGUCAUGGGAUCAUUCUCGUCUGGAAUCACGCAUUGUGCAUCUCGGUUGCGGGGCGUUUCGCAUGC [uxuB 5' UTR mutant (UPSTR mut)]”, for which the K half worked out at 144 nM. Turning to “GGGAGAACGGUUAACUUAACGGAUGUUUCGCGGUGUGGGUGAGCAUGAUGGUUCACCGGCAUCUCAAUUCUCAUUUAAACGUACCUGCAGCGAAUGAAUACUGAAGCCACGCACGACCAAAAUGAAGCACUUACUACCGGCGCUCGCCUGCGUAAUGCUCGCGAACAACUAGGACUUAGUCAGCAGGCCGUUG [rodZ leader]”, the binding entry was “binds”.
